In one data set the target is T1, Pdr3 (Saccharomyces cerevisiae) (UniProt P33200).
T1 sequence: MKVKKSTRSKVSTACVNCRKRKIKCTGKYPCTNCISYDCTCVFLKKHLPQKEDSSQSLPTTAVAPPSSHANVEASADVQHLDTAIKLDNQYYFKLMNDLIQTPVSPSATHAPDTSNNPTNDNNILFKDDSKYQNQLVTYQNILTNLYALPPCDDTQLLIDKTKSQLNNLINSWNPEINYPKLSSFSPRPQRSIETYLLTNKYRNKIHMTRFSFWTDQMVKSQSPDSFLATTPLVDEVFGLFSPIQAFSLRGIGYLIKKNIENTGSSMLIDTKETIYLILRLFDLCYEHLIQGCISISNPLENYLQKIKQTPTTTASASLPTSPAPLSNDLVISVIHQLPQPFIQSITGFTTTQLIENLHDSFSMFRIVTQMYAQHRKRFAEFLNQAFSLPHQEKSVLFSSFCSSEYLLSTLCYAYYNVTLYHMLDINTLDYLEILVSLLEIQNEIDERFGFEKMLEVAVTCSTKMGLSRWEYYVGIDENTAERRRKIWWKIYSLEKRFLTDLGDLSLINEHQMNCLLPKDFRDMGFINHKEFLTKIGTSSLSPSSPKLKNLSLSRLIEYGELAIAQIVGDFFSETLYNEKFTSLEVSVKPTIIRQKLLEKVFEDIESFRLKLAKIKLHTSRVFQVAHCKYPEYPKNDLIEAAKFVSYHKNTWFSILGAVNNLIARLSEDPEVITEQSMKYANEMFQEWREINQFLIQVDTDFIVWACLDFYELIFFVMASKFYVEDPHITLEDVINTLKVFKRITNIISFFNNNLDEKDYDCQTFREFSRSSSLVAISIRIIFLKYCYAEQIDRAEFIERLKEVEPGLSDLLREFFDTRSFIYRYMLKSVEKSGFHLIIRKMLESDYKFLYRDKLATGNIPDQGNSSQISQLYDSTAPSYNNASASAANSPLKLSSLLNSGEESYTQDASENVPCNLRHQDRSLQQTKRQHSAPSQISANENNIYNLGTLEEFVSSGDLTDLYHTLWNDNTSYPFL
To be noted: 200 nM.
With “AACGGAAC (double strand) [8-mer AACGGAAC]”, the binding signal (PBM E-score (-0.5 to 0.5)) worked out at 0.49.

For “ACCCGCGG (double strand) [8-mer ACCCGCGG]”, the binding signal (PBM E-score (-0.5 to 0.5)) was found to be 0.497.

The sequence “ATCCGCGG (double strand) [8-mer ATCCGCGG]” returned a binding signal (PBM E-score (-0.5 to 0.5)) of 0.496.

Consider “CCCCGCGG (double strand) [8-mer CCCCGCGG]”, for which the binding signal (PBM E-score (-0.5 to 0.5)) amounted to 0.492.

For the sequence “CCCGCGGA (double strand) [8-mer CCCGCGGA]”, the binding signal (PBM E-score (-0.5 to 0.5)) was 0.498.

For “CCCGCGGG (double strand) [8-mer CCCGCGGG]”, the binding signal (PBM E-score (-0.5 to 0.5)) is 0.498.

In turn, “CCGCGGAA (double strand) [8-mer CCGCGGAA]” came in with a binding signal (PBM E-score (-0.5 to 0.5)) of 0.499.

For the sequence “CCGCGGAC (double strand) [8-mer CCGCGGAC]”, the binding signal (PBM E-score (-0.5 to 0.5)) was 0.495.

The sequence “CCGCGGAG (double strand) [8-mer CCGCGGAG]” displayed a binding signal (PBM E-score (-0.5 to 0.5)) of 0.498.

In turn, “CCGCGGCA (double strand) [8-mer CCGCGGCA]” gave a binding signal (PBM E-score (-0.5 to 0.5)) of 0.49.

For the sequence “CCGCGGGA (double strand) [8-mer CCGCGGGA]”, the binding signal (PBM E-score (-0.5 to 0.5)) stood at 0.499.

For “CGCGGAAC (double strand) [8-mer CGCGGAAC]”, the binding signal (PBM E-score (-0.5 to 0.5)) was determined as 0.491.

The sequence “GCCGCGGA (double strand) [8-mer GCCGCGGA]” displayed a binding signal (PBM E-score (-0.5 to 0.5)) of 0.495.

In a further data set the target is T2, Msn1 (Saccharomyces cerevisiae) (UniProt P22148).
T2 sequence: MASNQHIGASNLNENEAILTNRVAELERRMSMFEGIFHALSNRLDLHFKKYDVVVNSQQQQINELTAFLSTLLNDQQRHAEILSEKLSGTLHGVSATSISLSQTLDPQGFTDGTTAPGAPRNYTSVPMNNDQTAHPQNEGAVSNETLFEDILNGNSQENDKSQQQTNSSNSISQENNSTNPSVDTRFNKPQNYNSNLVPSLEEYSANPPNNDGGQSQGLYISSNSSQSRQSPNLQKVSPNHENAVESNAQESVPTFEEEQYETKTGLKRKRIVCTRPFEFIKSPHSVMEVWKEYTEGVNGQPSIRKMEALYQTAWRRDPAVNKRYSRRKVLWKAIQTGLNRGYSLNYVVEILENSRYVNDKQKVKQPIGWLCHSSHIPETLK
To be noted: 200 nM.
For the sequence “AAATGTCC (double strand) [8-mer AAATGTCC]”, the binding signal (PBM E-score (-0.5 to 0.5)) worked out at 0.498.

With “AATGTCCA (double strand) [8-mer AATGTCCA]”, the binding signal (PBM E-score (-0.5 to 0.5)) is 0.493.

“AATGTCCC (double strand) [8-mer AATGTCCC]”: the binding signal (PBM E-score (-0.5 to 0.5)) was 0.496.

Consider “AATGTCCT (double strand) [8-mer AATGTCCT]”, for which the binding signal (PBM E-score (-0.5 to 0.5)) is 0.496.

“AGGACAAA (double strand) [8-mer AGGACAAA]” came in with a binding signal (PBM E-score (-0.5 to 0.5)) of 0.498.

As to “AGGACATA (double strand) [8-mer AGGACATA]”, the binding signal (PBM E-score (-0.5 to 0.5)) was 0.494.

In the case of “ATATGTCC (double strand) [8-mer ATATGTCC]”, the binding signal (PBM E-score (-0.5 to 0.5)) was determined as 0.496.

“ATGTCCTA (double strand) [8-mer ATGTCCTA]” yielded a binding signal (PBM E-score (-0.5 to 0.5)) of 0.497.

On to “ATTTGTCC (double strand) [8-mer ATTTGTCC]”, for which the binding signal (PBM E-score (-0.5 to 0.5)) was 0.498.

“GAATGTCC (double strand) [8-mer GAATGTCC]” registered a binding signal (PBM E-score (-0.5 to 0.5)) of 0.494.

For “GGACAAAA (double strand) [8-mer GGACAAAA]”, the binding signal (PBM E-score (-0.5 to 0.5)) stood at 0.494.

“GGACAAAC (double strand) [8-mer GGACAAAC]” came in with a binding signal (PBM E-score (-0.5 to 0.5)) of 0.491.

“GGGACAAA (double strand) [8-mer GGGACAAA]” yielded a binding signal (PBM E-score (-0.5 to 0.5)) of 0.496.

In the case of “TGGACAAA (double strand) [8-mer TGGACAAA]”, the binding signal (PBM E-score (-0.5 to 0.5)) turned out to be 0.493.

Values taken from publication PMC3334620.
